From doi:10.1101/2023.04.03.535362 (bioRxiv, 2023)

B1: dT30 ssDNA (ssDNA)
DNA: TTTTTTTTTTTTTTTTTTTTTTTTTTTTTT
B2: Histidine-tagged human RAD52 N-terminal domain (1-212) (domain or fragment, UniProt P43351 1-212, looked up)
chain: MSGTEEAILGGRDSHPAAGGGSVLCFGQCQYTAEEYQAIQKALRQRLGPEYISSRMAGGGQKVCYIEGHRVINLANEMFGYNGWAHSITQQNVDFVDLNNGKFYVGVCAFVRVQLKDGSYHEDVGYGVSEGLKSKALSLEKARKEAVTDGLKRALRSFGNALGNCILDKDYLRSLNKLPRQLPLEVDLTKAKRQDLEPSVEEARYNSCRPNM

What was measured:
[1] = molecular target: T1, RAD52 FL (human, UniProt P43351 1-418); assay: fluorescence polarization
T1 sequence: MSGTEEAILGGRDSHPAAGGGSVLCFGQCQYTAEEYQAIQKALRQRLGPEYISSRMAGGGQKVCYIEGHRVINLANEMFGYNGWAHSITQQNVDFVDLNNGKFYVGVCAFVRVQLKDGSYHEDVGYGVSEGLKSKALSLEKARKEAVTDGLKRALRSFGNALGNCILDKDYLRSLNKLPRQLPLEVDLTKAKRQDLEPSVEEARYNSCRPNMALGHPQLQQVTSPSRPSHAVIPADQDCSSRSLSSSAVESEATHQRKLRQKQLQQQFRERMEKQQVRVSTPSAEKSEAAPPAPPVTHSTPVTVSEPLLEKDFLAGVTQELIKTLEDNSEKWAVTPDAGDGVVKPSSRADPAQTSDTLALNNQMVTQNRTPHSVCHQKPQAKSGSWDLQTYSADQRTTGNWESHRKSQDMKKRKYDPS

[2] = molecular target: the molecule itself; assay: dynamic light scattering

| Binder | Kd [1] | stoichiometry N [2] |
| --- | --- | --- |
| B1 | 37.2 ± 0.4 nM |  |
| B2 |  | ~11 |
